Reference: patent publication US20250333467A1 (TECTONIC OPERATING, published 2025)
Numbering of substitutions follows the chain as printed. Where two headings read alike, the source gives them in different places.

B1: SEQ ID NO: 133 (Fc fusion)
chain: DKTHTCPPCPAPEAAGGPSVFLFPPKPKDTLMISRTPEVTCVVVDVSHEDPEVKFNWYVDGVEVHNAKTKPREEQYNSTYRVVSVLTVLHQDWLNGKEYKCKVSNKALAAPIEKTISKAKGQPREPQVYTLPPSRDELTKNQVSLTCLVKGFYPSDIAVEWESNGQPENNYKTTPPVLDSDGSFFLYSKLTVDKSRWQQGNVFSCSVLHEALHSHYTQKSLSLSPGKGGSDSYQEEVIKLCGRELVRAQIAICGKSTASDAAGAEAEAGARQLYSALANKCCYVGCTKQSLAQFC
B2: SEQ ID NO: 127 (Fc fusion)
chain: B1 chain with K227E, Q289R
B3: SEQ ID NO: 92 (Fc fusion)
chain: B1 chain with K227E, Y233W, E265N, E267D, Y283H, Q289R
B4: SEQ ID NO: 136 (Fc fusion)
chain: B1 chain with A258G, S259G, D260E, A261G, A262S, A264G, A266G, A268G, A270G, Y283K
B5: SEQ ID NO: 120 (Fc fusion)
chain: B1 chain with Y233F, Y283H, Q289R
B6: SEQ ID NO: 108 (Fc fusion)
chain: B1 chain with K227E, Y233W, Y283H
B7: SEQ ID NO: 119 (Fc fusion)
chain: B1 chain with Y283H, Q289R
B8: SEQ ID NO: 94 (Fc fusion)
chain: B1 chain with K227E, Y233W, Y283H, Q289R
B9: SEQ ID NO: 128 (Fc fusion)
chain: B1 chain with K227E, Y283K, Q289R
B10: SEQ ID NO: 134 (Fc fusion)
chain: B1 chain with Y283K
B11: SEQ ID NO: 110 (Fc fusion)
chain: B1 chain with K227E, Y233W, E265D, E267Q, Y283H
B12: SEQ ID NO: 137 (Fc fusion)
chain: B1 chain with A258G, S259G, D260E, A261G, A262S, A264G, A266G, E267S, A268G, A270G
B13: SEQ ID NO: 126 (Fc fusion)
chain: B1 chain with Y233W, Y283K, Q289R
B14: SEQ ID NO: 125 (Fc fusion)
chain: B1 chain with Y233W, Y283Q, Q289R
B15: SEQ ID NO: 135 (Fc fusion)
chain: B1 chain with A258G, S259G, D260E, A261G, A262S, A264G, A266G, A268G, A270G
B16: SEQ ID NO: 102 (Fc fusion)
chain: B1 chain with K227E, Y233W, K255Q, E265Q, E267D, Y283H, Q289R
B17: SEQ ID NO: 122 (Fc fusion)
chain: B1 chain with Y233I, Y283H, Q289R
B18: SEQ ID NO: 90 (Fc fusion)
chain: B1 chain with Y233W, E265Q, E267Q, Y283H, Q289R
B19: SEQ ID NO: 99 (Fc fusion)
chain: B1 chain with K227E, Y233W, K255Q, E265N, E267D, Y283H, Q289R
B20: SEQ ID NO: 113 (Fc fusion)
chain: B1 chain with K227E, Y233W, K255Q, E265N, E267D, Y283H
B21: SEQ ID NO: 101 (Fc fusion)
chain: B1 chain with K227E, Y233W, K255Q, Y283H, Q289R
B22: SEQ ID NO: 103 (Fc fusion)
chain: B1 chain with K227E, Y233W, K255Q, E265D, E267Q, Y283H, Q289R
B23: SEQ ID NO: 96 (Fc fusion)
chain: B1 chain with K227E, Y233W, E265D, E267Q, Y283H, Q289R
B24: SEQ ID NO: 123 (Fc fusion)
chain: B1 chain with Y233W, Q289R
B25: SEQ ID NO: 112 (Fc fusion)
chain: B1 chain with K227E, Y233W, K255Q, E265D, E267N, Y283H
B26: SEQ ID NO: 100 (Fc fusion)
chain: B1 chain with K227E, Y233W, K255Q, E265D, E267D, Y283H, Q289R
B27: SEQ ID NO: 124 (Fc fusion)
chain: B1 chain with Y233W, Y283L, Q289R
B28: SEQ ID NO: 121 (Fc fusion)
chain: B1 chain with Y233L, Y283H, Q289R
B29: SEQ ID NO: 97 (Fc fusion)
chain: B1 chain with K227E, Y233W, E265Q, E267Q, Y283H, Q289R
B30: SEQ ID NO: 117 (Fc fusion)
chain: B1 chain with K227E, Y233W, K255Q, E265D, E267Q, Y283H
B31: SEQ ID NO: 106 (Fc fusion)
chain: B1 chain with K227E, Y233W, E265N, E267D, Y283H
B32: SEQ ID NO: 116 (Fc fusion)
chain: B1 chain with K227E, Y233W, K255Q, E265Q, E267D, Y283H
B33: SEQ ID NO: 138 (Fc fusion)
chain: DKTHTCPPCPAPEAAGGPSVFLFPPKPKDTLMISRTPEVTCVVVDVSHEDPEVKFNWYVDGVEVHNAKTKPREEQYNSTYRVVSVLTVLHQDWLNGKEYKCKVSNKALAAPIEKTISKAKGQPREPQVYTLPPSRDELTKNQVSLTCLVKGFYPSDIAVEWESNGQPENNYKTTPPVLDSDGSFFLYSKLTVDKSRWQQGNVFSCSVLHEALHSHYTQKSLSLSPGKGGSDSYQEEVIKLCGRELVRAQIAICGKSTGGEGSGGEGSGGGRQLYSALANKCCKVGCTKQSLAQFC
B34: SEQ ID NO: 130 (Fc fusion)
chain: B33 chain with K227E, S267E, Q289R
B35: SEQ ID NO: 131 (Fc fusion)
chain: B33 chain with K227E, K283Y, Q289R
B36: SEQ ID NO: 129 (Fc fusion)
chain: B33 chain with K227E, S267E, K283Y, Q289R
B37: SEQ ID NO: 132 (Fc fusion)
chain: B33 chain with K227E, Q289R
B38: SEQ ID NO: 367 (Fc fusion)
chain: DKTHTCPPCPAPEAAGGPSVFLFPPKPKDTLMISRTPEVTCVVVDVSHEDPEVKFNWYVDGVEVHNAKTKPREEQYNSTYRVVSVLTVLHQDWLNGKEYKCKVSNKALAAPIEKTISKAKGQPREPQVYTLPPSRDELTKNQVSLTCLVKGFYPSDIAVEWESNGQPENNYKTTPPVLDSDGSFFLYSKLTVDKSRWQQGNVFSCSVLHEALHSHYTQKSLSLSPGGGSDSWMEEVIKLCGRELVRAQIAICGKSTGGEGGGEEGGGEGGQLYSALANKCCHVGCTKRSLARFC

Tests used:
Assay in all cases: cell-based or functional assay
human RXFP1 [1] = target: T1, human RXFP1 (human, UniProt Q9HBX9 1-757)
T1 sequence (looked up): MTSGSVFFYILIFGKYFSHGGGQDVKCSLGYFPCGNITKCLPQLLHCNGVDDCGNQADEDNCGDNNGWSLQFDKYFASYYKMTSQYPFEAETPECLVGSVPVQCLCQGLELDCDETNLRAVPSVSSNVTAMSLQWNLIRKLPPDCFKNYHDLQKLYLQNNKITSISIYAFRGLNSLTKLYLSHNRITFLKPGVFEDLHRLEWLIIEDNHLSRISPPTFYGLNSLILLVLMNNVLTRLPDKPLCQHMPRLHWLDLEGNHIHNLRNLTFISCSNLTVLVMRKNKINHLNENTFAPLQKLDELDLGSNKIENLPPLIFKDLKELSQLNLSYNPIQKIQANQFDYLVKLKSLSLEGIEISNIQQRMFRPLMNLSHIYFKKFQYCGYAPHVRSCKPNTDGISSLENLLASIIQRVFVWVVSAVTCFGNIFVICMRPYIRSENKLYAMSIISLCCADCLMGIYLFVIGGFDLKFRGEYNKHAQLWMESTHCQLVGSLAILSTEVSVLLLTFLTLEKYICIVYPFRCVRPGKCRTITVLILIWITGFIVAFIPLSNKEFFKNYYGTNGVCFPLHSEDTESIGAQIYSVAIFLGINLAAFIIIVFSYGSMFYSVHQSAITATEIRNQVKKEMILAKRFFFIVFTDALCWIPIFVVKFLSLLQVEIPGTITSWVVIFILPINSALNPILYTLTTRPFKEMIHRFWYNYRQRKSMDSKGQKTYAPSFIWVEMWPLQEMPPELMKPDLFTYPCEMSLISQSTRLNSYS

human RXFP1 [2] = target: T1, human RXFP1; remark: listed apart in the source
human RXFP1 [3] = target: T1, human RXFP1; remark: listed apart in the source

| Binder | Potency (cAMP, transient hRXFP1 in HEK293) (human RXFP1 [1]) | Potency (cAMP, transient hRXFP1 in HEK293) (human RXFP1 [2]) | also measured |
| --- | --- | --- | --- |
| B1 | 30.6 nM | – | – |
| B2 | 32 nM | – | – |
| B3 | – | 4.3 nM | – |
| B4 | 17.6 nM | – | – |
| B5 | 4.8 nM | – | – |
| B6 | – | 35.2 nM | – |
| B7 | 4.9 nM | – | – |
| B8 | – | 12.2 nM | – |
| B9 | 23.2 nM | – | – |
| B10 | 21.6 nM | – | – |
| B11 | – | 17.2 nM | – |
| B12 | 11.4 nM | – | – |
| B13 | 8.3 nM | – | – |
| B14 | 11.1 nM | – | – |
| B15 | 29.5 nM | – | – |
| B16 | – | 7.5 nM | – |
| B17 | 6.5 nM | – | – |
| B18 | – | 0.6 nM | THP1 (endogenous RXFP1) cAMP EC50 (human RXFP1 [3]): 4.4 nM; Transient HEK293 hRXFP1 cAMP EC50 (human RXFP1 [3]): 0.6 nM |
| B19 | – | 9.4 nM | – |

| Binder | Potency (cAMP, transient hRXFP1 in HEK293) (human RXFP1 [1]) | Potency (cAMP, transient hRXFP1 in HEK293) (human RXFP1 [2]) | also measured |
| --- | --- | --- | --- |
| B20 | – | 26 nM | – |
| B21 | – | 29.4 nM | – |
| B22 | – | 12.2 nM | – |
| B23 | – | 9.9 nM | – |
| B24 | 11.7 nM | – | – |
| B25 | – | 24.8 nM | – |
| B26 | – | 28.7 nM | – |
| B27 | 20.8 nM | – | – |
| B28 | 5.5 nM | – | – |
| B29 | – | 1.3 nM | – |
| B30 | – | 31.2 nM | – |
| B31 | – | 14 nM | – |
| B32 | – | 25.9 nM | – |
| B33 | 7.5 nM | – | – |
| B34 | 24.6 nM | – | – |
| B35 | 16.4 nM | – | – |
| B36 | 42.4 nM | – | – |
| B37 | 11.2 nM | – | – |
| B38 | – | 140 nM | Transient HEK293 hRXFP1 cAMP EC50 (human RXFP1 [3]): ~150 nM |
